Assay [1] addresses T1, natural NMI in joint fluid of an arthritic patient (human) (UniProt Q13287).
T1 sequence (looked up): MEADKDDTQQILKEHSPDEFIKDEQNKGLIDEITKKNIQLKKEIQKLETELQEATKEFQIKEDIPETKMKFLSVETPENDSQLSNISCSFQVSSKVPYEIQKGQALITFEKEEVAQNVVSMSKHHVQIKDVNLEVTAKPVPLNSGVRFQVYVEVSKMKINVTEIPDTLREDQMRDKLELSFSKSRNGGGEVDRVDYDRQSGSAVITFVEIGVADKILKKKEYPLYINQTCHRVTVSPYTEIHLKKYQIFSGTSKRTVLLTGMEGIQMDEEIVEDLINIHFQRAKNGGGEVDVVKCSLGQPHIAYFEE
The experiment in a line: sandwich ELISA; detection 94C4-1-biotin 0.5µg/mL; joint fluid stock solution. (In general: An ELISA detects its analyte on a solid surface through an enzyme-linked reagent.)

In assay [2] the target is T2, human NMI (N-myc Interacting protein) (human) (UniProt Q13287).
T2 sequence (looked up): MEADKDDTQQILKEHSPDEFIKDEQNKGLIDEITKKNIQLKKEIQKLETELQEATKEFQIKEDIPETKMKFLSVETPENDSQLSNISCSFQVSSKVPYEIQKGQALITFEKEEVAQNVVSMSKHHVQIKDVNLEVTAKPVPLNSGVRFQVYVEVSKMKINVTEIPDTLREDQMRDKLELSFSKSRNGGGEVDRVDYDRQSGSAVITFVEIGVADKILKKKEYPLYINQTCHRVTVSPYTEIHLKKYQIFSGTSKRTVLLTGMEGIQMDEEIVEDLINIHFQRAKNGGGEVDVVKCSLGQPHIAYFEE
Kind of assay: magnetic-bead chemiluminescent sandwich; capture 98G10 beads, detection acridinium-B-8 (1.0 mg B-8 labelled); hNMI 50 pg/mL.

Assay [3] addresses T2, human NMI (N-myc Interacting protein) (human). The experiment in a line: magnetic-bead chemiluminescent sandwich; capture 98G10 beads (1.0 mg 98G10), detection acridinium-B-8; hNMI 50 pg/ml.
Assay [4] has the same target. The experiment in a line: magnetic-bead chemiluminescent sandwich, kit of Example 8-1; capture 98G10 beads, detection acridinium-B-8; series 1, hNMI 50 pg/mL.
For assay [5] the target is unchanged. Kind of assay: magnetic-bead chemiluminescent sandwich, kit of Example 8-1; capture 98G10 beads, detection acridinium-B-8; series 3, hNMI 4000 pg/mL.
Assay [6] has the same target. The experiment in a line: magnetic-bead chemiluminescent sandwich; capture 98G10 beads (0.5 mg 98G10), detection acridinium-B-8; hNMI 50 pg/ml.
Assay [7] shares this target. The experiment in a line: magnetic-bead chemiluminescent sandwich; capture 98G10 beads (1.0 mg 98G10), detection acridinium-B-8; hNMI 2000 pg/ml.
For assay [8] the target is unchanged. The experiment in a line: magnetic-bead chemiluminescent sandwich; capture 98G10 beads, detection acridinium-B-8 (1.0 mg B-8 labelled); hNMI 100 pg/mL.
For assay [9] the target is unchanged. Kind of assay: magnetic-bead chemiluminescent sandwich, kit of Example 8-1; capture 98G10 beads, detection acridinium-B-8; series 3, hNMI 1000 pg/mL.
Assay [10] shares this target. Kind of assay: magnetic-bead chemiluminescent sandwich, kit of Example 8-1; capture 98G10 beads, detection acridinium-B-8; series 3, hNMI 10000 pg/mL.

B1: monoclonal antibody B-8 (antibody, V domains shown)
VH: QSLEESGGDLVKPGASLTLTCTASGFSFSSSYYMCWVRQAPGKGLEWIACIYAGSSGSTYYASWAKGRFTISKTSSTTVTLQMTSLTAADTATYFCAREYSYDDYGDFWGFNLWGPGTLVTVSS
VL: ALVMTQTPSSVSAAVGGTVTINCQASQNIYTNLAWYQQKPGQPPKLLIYGASNLESGVPSRFKGSGSGTEYTLTISDLECDDAATYYCQSSLYSRIADRANAFGGGTEVVVK
notes: Rabbit monoclonal antibody; also called B8-1
Molecule B1 yielded an OD450 in [1] of 0.221 OD450.

B2: acridinium ester-labeled monoclonal antibody B-8 (antibody, V domains shown)
VH: QSLEESGGDLVKPGASLTLTCTASGFSFSSSYYMCWVRQAPGKGLEWIACIYAGSSGSTYYASWAKGRFTISKTSSTTVTLQMTSLTAADTATYFCAREYSYDDYGDFWGFNLWGPGTLVTVSS
VL: ALVMTQTPSSVSAAVGGTVTINCQASQNIYTNLAWYQQKPGQPPKLLIYGASNLESGVPSRFKGSGSGTEYTLTISDLECDDAATYYCQSSLYSRIADRANAFGGGTEVVVK
modifications: acridinium ester label on the antibody, site not stated
B2: the Signal value in [2] came to 4560; in assay [3], 11100; in [4] it was 2010; in assay [5], 572000; in assay [6], 4560; in [7], 397000. The Signal value in [8] was found to be 9490; in assay [9] it was 131000; in [10], 1.48e+06.

The values above are taken from patent EP4682166A1 (Guangzhou Enmai Biotechnology Co., Ltd, dated 2026).
